The target in experiment [1] is T1, adaptor-related protein complex 2, alpha 1 subunit (rat).
T1 construct: Endogenous protein from RBL-2H3 (rat) lysate
The experiment can be described thus: IP of RBL-2H3 lysate on nickel beads, MS/MS ProtScore; 2nd value. The method, then: (§1) They were used to immunoprecipitate protein lysates from RBL-2H3 cells stimulated or not beforehand via the FcεRI. After the immunoprecipitations, the beads were washed in low stringency conditions in order to preserve low affinity bindings.
(§2) After digestion with trypsin, the bands were analysed by mass spectrometry MS/MS using the MALDI-TOF (matrix-assisted laser desorption/ionization time of flight) technique.
(§3) The Mass spectrometer which was used is composed of a laser which ionises previously digested peptides; an analyser which measures the mass/charge (m/z) ratios of the ionised peptides as a function of their flight time; and a detector which records the number of ions for each given m/z ratio. The obtained spectra of m/z ratios allow the identification of peptides and thus proteins present in the samples, by interrogating the Genebank rat database, as well as the mouse database for comparison (the mice Genebank data being more complete). A confidence index or ProtScore is attributed for each protein as a function of the number of identified peptides which are part of its sequence and of the nature of these peptides (composition, size). A ProtScore higher than 3 corresponds to 0.1% probability of identifying a false positive, in other words the probability that this protein is present is 99.9%.

Experiment [2] deals with T2, vesicle docking protein (rat).
T2 construct: Endogenous protein from RBL-2H3 (rat) lysate; a separate GenBank entry from gi 9507177
T2 sequence (P41542 whole entry): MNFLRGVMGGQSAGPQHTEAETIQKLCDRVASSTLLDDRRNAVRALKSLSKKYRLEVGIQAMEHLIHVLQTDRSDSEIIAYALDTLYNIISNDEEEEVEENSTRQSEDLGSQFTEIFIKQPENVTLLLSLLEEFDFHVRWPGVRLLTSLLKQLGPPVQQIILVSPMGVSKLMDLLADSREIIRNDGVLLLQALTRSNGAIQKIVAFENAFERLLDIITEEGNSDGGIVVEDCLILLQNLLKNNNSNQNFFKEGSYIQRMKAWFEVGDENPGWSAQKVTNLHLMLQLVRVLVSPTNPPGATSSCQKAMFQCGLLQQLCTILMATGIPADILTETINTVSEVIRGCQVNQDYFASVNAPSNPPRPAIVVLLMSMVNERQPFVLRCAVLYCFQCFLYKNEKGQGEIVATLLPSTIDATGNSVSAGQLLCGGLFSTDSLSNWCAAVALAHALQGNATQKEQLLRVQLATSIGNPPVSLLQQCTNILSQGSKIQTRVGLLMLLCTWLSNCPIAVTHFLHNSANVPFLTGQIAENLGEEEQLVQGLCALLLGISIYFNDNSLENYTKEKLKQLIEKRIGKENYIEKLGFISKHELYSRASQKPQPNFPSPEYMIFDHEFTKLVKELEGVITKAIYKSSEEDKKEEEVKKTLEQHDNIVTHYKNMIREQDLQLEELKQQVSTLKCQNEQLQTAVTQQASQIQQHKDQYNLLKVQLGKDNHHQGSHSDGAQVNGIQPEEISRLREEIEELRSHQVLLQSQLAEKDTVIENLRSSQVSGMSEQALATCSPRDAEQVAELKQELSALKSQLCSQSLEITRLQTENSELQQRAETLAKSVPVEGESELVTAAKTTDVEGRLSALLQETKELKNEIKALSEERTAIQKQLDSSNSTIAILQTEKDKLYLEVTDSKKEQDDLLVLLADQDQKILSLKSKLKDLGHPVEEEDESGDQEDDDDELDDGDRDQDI
The experiment is described as above. The method, then:
as §1, §2, §3

Experiment [3] concerns the target T3, PREDICTED: similar to myosin IG (rat).
T3 construct: Endogenous protein from RBL-2H3 (rat) lysate
The description is as above. The method, then: as §1, §2, §3

Experiment [4] has as its target T4, kinesin family member 20A (rat).
T4 construct: Endogenous protein from RBL-2H3 (rat) lysate
The experiment is described as above. The method, then:
as §1, §2, §3

The target of experiment [5] is T1, adaptor-related protein complex 2, …. The experiment can be described thus: IP of RBL-2H3 lysate on nickel beads, MS/MS ProtScore; 1st value. The procedure:
as §1, §2, §3

Experiment [6] concerns the target T2, vesicle docking protein. The description is as above. The method, then: as §1, §2, §3
Experiment [7] addresses T3, PREDICTED: similar to myosin IG. The description is as above. The method, then: as §1, §2, §3
Experiment [8] has as its target T4, kinesin family member 20A. The description is as above. The method, then:
as §1, §2, §3

In experiment [9] the target is T5, lysine (K)-specific demethylase 1 (rat).
T5 construct: Endogenous protein from RBL-2H3 (rat) lysate
The experiment can be described thus: IP of RBL-2H3 lysate on nickel beads, MS/MS ProtScore. The procedure:
as §1, §2, §3

Experiment [10] concerns the target T6, CCCH-type zinc finger antiviral protein (rat).
T6 sequence (Q8K3Y6 2-776, looked up): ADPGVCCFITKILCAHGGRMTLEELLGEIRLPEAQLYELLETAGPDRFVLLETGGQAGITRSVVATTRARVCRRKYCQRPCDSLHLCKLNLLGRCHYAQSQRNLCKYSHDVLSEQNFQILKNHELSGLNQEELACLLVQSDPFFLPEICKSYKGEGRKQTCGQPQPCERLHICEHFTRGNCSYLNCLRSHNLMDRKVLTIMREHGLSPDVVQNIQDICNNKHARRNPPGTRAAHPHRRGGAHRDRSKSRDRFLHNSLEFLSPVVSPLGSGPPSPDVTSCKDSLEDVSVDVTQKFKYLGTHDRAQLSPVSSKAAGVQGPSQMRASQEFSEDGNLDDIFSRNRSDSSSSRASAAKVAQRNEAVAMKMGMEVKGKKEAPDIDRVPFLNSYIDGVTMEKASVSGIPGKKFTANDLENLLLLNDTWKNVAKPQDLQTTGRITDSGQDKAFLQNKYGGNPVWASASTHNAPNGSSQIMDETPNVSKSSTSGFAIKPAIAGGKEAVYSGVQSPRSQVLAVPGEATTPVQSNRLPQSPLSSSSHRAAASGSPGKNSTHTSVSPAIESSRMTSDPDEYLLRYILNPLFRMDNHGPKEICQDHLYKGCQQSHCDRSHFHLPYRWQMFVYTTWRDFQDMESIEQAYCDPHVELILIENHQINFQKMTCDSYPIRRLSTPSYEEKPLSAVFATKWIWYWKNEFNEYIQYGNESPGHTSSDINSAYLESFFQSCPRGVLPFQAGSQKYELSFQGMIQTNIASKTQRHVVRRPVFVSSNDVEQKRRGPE
The description is as above. The method, then:
as §1, §2, §3

A further experiment concerns the target T7, rCG30986, isoform CRA_a (rat).
T7 construct: Endogenous protein from RBL-2H3 (rat) lysate
The description is as above. The method, then: as §1, §2, §3

Experiment [11] concerns the target T8, ATP-binding cassette sub-family F member 1 (rat, UniProt Q6MG08 1-839).
T8 construct: Endogenous protein from lysates of the rat mast cell line RBL-2H3; also called ABCF1; ABCF1 protein
Described as above. The method, then: as §1, §2, §3

Another experiment concerns the target T9, CTP synthase (rat).
T9 construct: Endogenous protein from RBL-2H3 (rat) lysate
The experiment is described as above. The procedure: as §1, §2, §3

The target in experiment [12] is T10, guanine nucleotide binding protein-like 2 (rat).
T10 construct: Endogenous protein from RBL-2H3 (rat) lysate
Described as above. The method, then:
as §1, §2, §3

Experiment [13] has as its target T11, fragile X mental retardation 1 (rat).
T11 construct: Endogenous protein from RBL-2H3 (rat) lysate
The description is as above. The procedure: as §1, §2, §3

The target of experiment [14] is T12, metastasis associated 1 family, member 2 (rat).
T12 construct: Endogenous protein from RBL-2H3 (rat) lysate
The description is as above. The method, then:
as §1, §2, §3

T8 sequence (Q6MG08 whole entry): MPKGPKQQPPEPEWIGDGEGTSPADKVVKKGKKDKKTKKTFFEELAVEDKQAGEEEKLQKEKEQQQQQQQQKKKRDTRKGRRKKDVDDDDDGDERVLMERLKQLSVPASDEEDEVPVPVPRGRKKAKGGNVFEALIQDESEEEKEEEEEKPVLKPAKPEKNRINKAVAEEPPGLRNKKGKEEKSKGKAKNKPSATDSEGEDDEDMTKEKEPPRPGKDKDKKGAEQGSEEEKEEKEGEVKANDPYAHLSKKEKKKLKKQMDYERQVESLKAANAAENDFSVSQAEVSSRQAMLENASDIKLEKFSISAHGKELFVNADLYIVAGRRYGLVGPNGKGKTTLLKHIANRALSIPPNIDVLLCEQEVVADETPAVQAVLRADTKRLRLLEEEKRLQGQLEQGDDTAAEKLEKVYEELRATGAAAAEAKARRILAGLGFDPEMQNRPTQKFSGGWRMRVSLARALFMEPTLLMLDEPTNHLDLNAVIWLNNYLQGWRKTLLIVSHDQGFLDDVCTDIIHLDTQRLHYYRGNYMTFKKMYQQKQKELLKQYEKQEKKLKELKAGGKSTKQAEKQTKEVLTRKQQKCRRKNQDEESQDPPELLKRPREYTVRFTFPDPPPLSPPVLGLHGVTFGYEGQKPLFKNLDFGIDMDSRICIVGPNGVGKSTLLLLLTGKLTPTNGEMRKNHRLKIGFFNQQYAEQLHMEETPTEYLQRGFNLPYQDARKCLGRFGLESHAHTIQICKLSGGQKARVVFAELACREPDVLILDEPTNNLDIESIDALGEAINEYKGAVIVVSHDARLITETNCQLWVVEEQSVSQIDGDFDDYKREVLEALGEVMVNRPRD

B1: 5H4-VH (other)
VH: MAEVQLVESGGSLVKPGGSLRLSCAASGFTFSNYSMNWVRQAPGKGLEWISSISGSSRYIYYADFVKGRFTISRDNATNSLYLQMNSLRAEDTAVYYCVRDGGLREGFDCWGRGTLVTVSSAAAEQKLISEEDLNGAA
notes: Single human-derived VH domain (truncated scFv, VH only) on the 13R4 framework; produced in E. coli, immobilised on nickel beads; also called 5H4-VH fragment; intracellular antibody 5H4-VH; not shown: C-terminal Myc tag and 6xHis tag from vector pET23NN
B1: the “Protscore IP” value in [1] is 6; with vesicle docking protein [2], 5; in [3] it was 20; in [4], 10; in [5], 15; with vesicle docking protein [6], 8. Besides, the “Protscore IP” value in [7] and in experiment [8] was 8 throughout.

B2: scFv 3H2-1 (scFv)
scFv: MAEVQLVESGGSLVKPGGSLRLSCAASGFTFSNYSMNWVRQAPGKGLEWISSISGSSRYIYYADFVKGRFTISRDNATNSLYLQMNSLRAEDTAVYYCVRPIAVSDYWGRGTLVTVSSGGGGSGGGGSGGGGSQSVLTQPASVSGSPGQSITISCAGTSSDVGGYNYVSWYQQHPGKAPKLMIYEDSKRPSGVSNRFSGSKSGNTASLTISGLQAEDEADYYCQTYDGSRAVFGGGTKLAVLGAAAEQKLISEEDLNGAA
notes: also called intracellular antibody 3H2-1; intrabody 3H2-1; not shown: C-terminal Myc tag and 6xHis tag from vector pET23NN
For B2, the “Protscore IP” value turned out to be 10 in [9]; 4 in experiment [10]; 10 in the experiment with rCG30986, isoform CRA_a; 51 in experiment [11]; 7 with CTP synthase; 10 in [12]. Further, the “Protscore IP” value in experiment [13] and in experiment [14] was 4 in each case.
